Assay results taken from article PMC7046635, “A combined experimental and modelling approach for the Weimberg pathway optimisation” (Nature Communications, 2020).

Legend:
[1] = substrate: O=CCCC(=O)O; assay: purified protein; type: biochemical, Caulobacter vibrioides; conditions: 100 mM HEPES/NaOH pH 7.5, 37 °C, NAD(P)+
[2] = substrate: O=CCCCC=O; assay: purified protein; type: biochemical, Caulobacter vibrioides; conditions: 100 mM HEPES/NaOH pH 7.5, 37 °C, NAD(P)+
[3] = substrate: O=CCCC(=O)C(=O)O; assay: purified protein; type: biochemical, Caulobacter vibrioides; conditions: 100 mM HEPES/NaOH pH 7.5, 37 °C, co-substrate NAD+
[4] = substrate: NC(=O)c1ccc[n+]([C@@H]2O[C@H](COP(=O)(O)OP(=O)(O)OC[C@H]3O[C@@H](n4cnc5c(N)ncnc54)[C@H](O)[C@@H]3O)[C@@H](O)[C@H]2O)c1; assay: purified protein; type: biochemical, Caulobacter vibrioides; conditions: 100 mM HEPES/NaOH pH 7.5, 37 °C, varied: cofactor
[5] = substrate: NC(=O)c1ccc[n+]([C@@H]2O[C@H](COP(=O)(O)OP(=O)(O)OC[C@H]3O[C@@H](n4cnc5c(N)ncnc54)[C@H](OP(=O)(O)O)[C@@H]3O)[C@@H](O)[C@H]2O)c1; assay: purified protein; type: biochemical, Caulobacter vibrioides; conditions: 100 mM HEPES/NaOH pH 7.5, 37 °C, varied: cofactor
[6] = substrate: O=C1O[C@H](CO)[C@H](O)[C@H]1O; assay: purified protein; type: biochemical, Caulobacter vibrioides; conditions: 100 mM HEPES/NaOH pH 7.5, 37 °C, 5 mM NAD+
[7] = substrate: O=C(O)C(=O)C[C@H](O)CO; assay: purified protein; type: biochemical, Caulobacter vibrioides; conditions: 100 mM HEPES/NaOH pH 7.5, 37 °C, 5 mM NAD+
[8] = substrate: NC(=O)c1ccc[n+]([C@@H]2O[C@H](COP(=O)(O)OP(=O)(O)OC[C@H]3O[C@@H](n4cnc5c(N)ncnc54)[C@H](O)[C@@H]3O)[C@@H](O)[C@H]2O)c1; assay: purified protein, by the assay type; design: initial rate kinetics of purified recombinant enzyme, classical Michaelis-Menten fit
Description: The five genes of the D-xylose operon, i.e., CCNA_00862–00866, were amplified by PCR using gene-specific primers (Supplementary Table 1) and the genomic DNA of C. crescentus NA1000 as template. The PCR products were cloned into pET (Novagen) expression vectors (Supplementary Table 1) and successful cloning was confirmed by sequencing (LGC genomics, Berlin). For expression, the respective plasmids were transformed into the E. coli BL21-pRIL (DE3) or Rosetta (DE3, Stratagene) (Supplementary Table 1). Overexpression was performed in LB medium containing the appropriate antibiotic. The cells were grown at 37 °C to an OD600 of 0.6–0.7 and induced with 1 mM isopropyl-β-D-thiogalactopyranoside. After induction, the cultures were further incubated at 37 °C for 4 h or at 30 °C or at 21 °C for 18–22 h (Supplementary Table 1), respectively. Cells were collected by centrifugation (15 min, 8630 × g, 4 °C) and the pellets were stored at −70 °C. Due to the choice of the vectors, all of the C. crescentus enzymes were N-terminally histidine tagged. The recombinant L-isoleucine dioxygenase from B. thuringiensis (BtDO) contained a C-terminal 6× histidine tag[47]. […] For XLA and KDXD, the inhibition constants for D-xylonate and KGSA, respectively, had to be fitted based on the conversion data, as these enzymes are analysed in coupled enzyme assays. […]

B1: α-Ketoglutarate semialdehyde dehydrogenase (KGSADH) (Caulobacter vibrioides NA1000) (protein)
chain: MTDTLRHYIGGERVAADAPAESLNPSNTNDVVAKVPMGGQAEVDAAVDAARKAFPAWADASPEVRSDLLDKVGSTIIARSADIGRLLAREEGKTLAEGIGETVRAGRIFKYFAGEALRRHGQNLESTRPGVEIQTYRQAVGVYGLITPWNFPIAIPAWKAAPALAFGNTVVIKPAGPTPATANVLADIMAECGAPAGVFNMLFGRGSMGDALIKHKDVDGVSFTGSQGVGAQVAAAAVARQARVQLEMGGKNPLIVLDDADLERAVAIALDGSFFATGQRCTASSRLIVQDGIHDKFVALLAEKVAALRVGDALDPNTQIGPAVSEDQMETSYRYIDIAASEGGRVVTGGDRIKLDNPGWYVRPTLIADTQAGMRINNEEVFGPVASTIRVKSYEEALEIANGVEFGLSAGIATTSLKHARHFQRYARAGMTMVNLATAGVDYHVPFGGTKSSSYGAREQGFAAVEFFTQTKTSYSWS
notes: full-length gene in pET vector, N-terminal His tag, E. coli expression, Ni-TED and size exclusion
Km [1]: 400 µM | Km [2]: 2510 µM | Km [3]: 20 µM | Vmax [3]: 49 µmol/min/mg | kcat [3]: 41 s⁻¹ | kcat/Km [3]: 2.05e+06 M⁻¹ s⁻¹ | Km ([4]; co-substrate KGSA): 600 µM | Vmax ([4]; co-substrate KGSA): 49 µmol/min/mg | kcat ([4]; co-substrate KGSA): 41 s⁻¹ | kcat/Km ([4]; co-substrate KGSA): 68000 M⁻¹ s⁻¹ | Km [5]: 20 µM

B2: Xylonolactonase (XLA) (Caulobacter vibrioides NA1000) (protein)
chain: MTAQVTCVWDLKATLGEGPIWHGDTLWFVDIKQRKIHNYHPATGERFSFDAPDQVTFLAPIVGATGFVVGLKTGIHRFHPATGFSLLLEVEDAALNNRPNDATVDAQGRLWFGTMHDGEENNSGSLYRMDLTGVARMDRDICITNGPCVSPDGKTFYHTDTLEKTIYAFDLAEDGLLSNKRVFVQFALGDDVYPDGSVVDSEGYLWTALWGGFGAVRFSPQGDAVTRIELPAPNVTKPCFGGPDLKTLYFTTARKGLSDETLAQYPLAGGVFAVPVDVAGQPQHEVRLV
notes: as for B1
Km [6]: 450 µM | Vmax [6]: 944 µmol/min/mg | kcat [6]: 497 s⁻¹ | kcat/Km [6]: 1.1e+06 M⁻¹ s⁻¹

B3: 2-Keto-3-deoxy-D-xylonate dehydratase (KDXD) (Caulobacter vibrioides NA1000) (protein)
chain: MGVSEFLPEDWKAATLLGRIDFGEGPTPVLVRGGRVEDVSKIAPTVADLMNAFQPGAVIPRGEDKGPLEALDIRPVWEDPDGAAPVKLLAPVDLQCLKAAGVTFAVSTLERVIEERARGDAGEALKIRTLLAERMGGDLKSVEPGSQGAQRLKDALIADGLWSQYLEVAIGPDAEIFTKGPTLSSMGWGDQVGVRYDSHWNNPEPEVVLLCDGSGLIRGAALGNDVNLRDFEGRSALLLSKAKDNNASCAIGPFFRLFDETFGLDDVRSAEVELKITGRDNFVLDGKSNMSLISRDPAVLAGQAYGKQHQYPDGFALFLGTMFAPIQDRDTPGQGFTHKVGDRVRVSTPKLGVLENEVTTCDKAKPWTFGISALIRNLAGRGLL
notes: as for B1
Km [7]: 210 µM | Vmax [7]: 107 µmol/min/mg | kcat [7]: 74 s⁻¹ | kcat/Km [7]: 352000 M⁻¹ s⁻¹

B4: D-xylose dehydrogenase (XDH) (Caulobacter vibrioides NA1000) (protein)
chain: MSSAIYPSLKGKRVVITGGGSGIGAGLTAGFARQGAEVIFLDIADEDSRALEAELAGSPIPPVYKRCDLMNLEAIKAVFAEIGDVDVLVNNAGNDDRHKLADVTGAYWDERINVNLRHMLFCTQAVAPGMKKRGGGAVINFGSISWHLGLEDLVLYETAKAGIEGMTRALARELGPDDIRVTCVVPGNVKTKRQEKWYTPEGEAQIVAAQCLKGRIVPENVAALVLFLASDDASLCTGHEYWIDAGWR
notes: as for B1
Km [8]: 170 µM | Km ([4]; co-substrate D-xylose): 160 µM | Vmax ([4]; co-substrate D-xylose): 120 µmol/min/mg | kcat ([4]; co-substrate D-xylose): 57 s⁻¹ | kcat/Km ([4]; co-substrate D-xylose): 356000 M⁻¹ s⁻¹
